The text below walks through data of PMC10955725.

This test concerns the target His6-Mb(S2)-Avi, recombinant monobody. The experiment in a line: BLI. In general terms: BLI is a label-free optical method that tracks binding on a fibre tip over time.

As usually defined, the Kd is the constant that tells how readily two partners part at equilibrium.

Take “wild-type (WT) SOD1, non-tagged recombinant (from UniProt P00441 2-154) (natural protein)”: the Kd came to 7 µM.
